Paper PMC10791543 (Science signaling, 2023)

Legend:
Test in all cases: other fluorescence titration
[1] = biological target: recombinant RHOA^L57V (human) (UniProt P61586)
[2] = biological target: recombinant RHOA^WT (human) (UniProt P61586)
[3] = biological target: recombinant RHOA^WT (human, UniProt P61586 1-193)
[4] = biological target: recombinant RHOA^L57V (human, UniProt P61586 1-193, L57V)
recombinant RHOA^L57V, sequence (P61586 whole entry L57V): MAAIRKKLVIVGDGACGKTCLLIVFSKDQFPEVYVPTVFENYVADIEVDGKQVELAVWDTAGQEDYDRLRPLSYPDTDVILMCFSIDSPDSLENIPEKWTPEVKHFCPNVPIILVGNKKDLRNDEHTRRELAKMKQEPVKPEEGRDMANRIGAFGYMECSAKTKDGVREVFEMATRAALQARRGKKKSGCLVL

GST-ROCK1-RBD (domain or fragment), sequence (Q13464 947-1015 limits assumed): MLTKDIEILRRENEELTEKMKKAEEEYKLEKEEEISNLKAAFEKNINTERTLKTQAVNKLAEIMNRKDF
recombinant RHOA^L57V (human), sequence (P61586 whole entry L57V): as the sequence (P61586 whole entry L57V) above
recombinant RHOA^WT (human), sequence (P61586 whole entry): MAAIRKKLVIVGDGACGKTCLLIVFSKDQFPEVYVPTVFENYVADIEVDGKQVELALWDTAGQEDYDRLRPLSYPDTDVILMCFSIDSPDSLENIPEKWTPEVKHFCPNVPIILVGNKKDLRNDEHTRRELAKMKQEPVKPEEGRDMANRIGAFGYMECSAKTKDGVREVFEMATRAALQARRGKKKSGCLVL
recombinant RHOA^WT, sequence (P61586 whole entry): as above

| Molecule | Kd [1] | Kd [2] | Kd [3] | Kd [4] |
| --- | --- | --- | --- | --- |
| GST-ROCK1-RBD (domain or fragment) | 243 nM | 439 nM |  |  |
| GST-Rhotekin-RBD (domain or fragment, mouse, UniProt Q8C6B2-2 7-89, looked up) ILEDLNMLYIRQMALSLEDTELQRKLDHEIRMRDGACKLLAACSQREQALEATKSLLVCNSRILSYMGELQRRKEAQVLEKTG |  |  | 258 ± 15 nM | 220 ± 10 nM |
